{
  "source": "patent US20260242478A1",
  "about": "(published 2026)",
  "key": {"PSMA Fab (006 PSMA Fab) [1]": {"biological_target": "T1, PSMA Fab (006 PSMA Fab) (biotinylated (site not stated))", "T1 construct": "also called Anti-PSMA Fab; anti-PSMA Fab", "test": "clonal phage ELISA on biotinylated PSMA Fab captured on neutravidin plate, blocking buffer alone; anti-M13 HRP detection"}, "PSMA Fab (006 PSMA Fab) [2]": {"biological_target": "T2, PSMA Fab (006 PSMA Fab) (biotinylated (site not stated))", "T2 construct": "Biotinylated PSMA Fab captured on neutravidin coated plates in the phage ELISA; also called Anti-PSMA Fab; anti-PSMA Fab", "test": "clonal phage supernatant on captured PSMA Fab pre-incubated with the competitor PSMA antigen, anti-M13-HRP detection"}, "PSMA Fab (006 PSMA Fab) [3]": {"biological_target": "T2, PSMA Fab (006 PSMA Fab)", "test": "clonal phage supernatant on biotinylated PSMA Fab captured on neutravidin plate, anti-M13-HRP detection;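 note: before phage were added, wells received PSMA antigen in blocking buffer or blocking buffer alone, with no wash in between, followed by a short phage incubation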", "method": "(§1) Clonal phage were harvested as crude supernatants and screened via standard ELISAs. […] Prior to the addition of clonal phage. wells were incubated with blocking buffer and PSMA antigen or blocking buffer alone. Without washing or aspirating, clonal phage supernatants were then added to the wells and incubated for a short time. Wells were then washed followed by detection of bound phage using a horse radish conjugated anti-M13 antibody."}, "PSMA Fab [4]": {"biological_target": "T3, PSMA Fab", "T3 construct": "also called Anti-PSMA Fab; 006 PSMA Fab", "test": "clonal phage ELISA; biotinylated PSMA Fab on neutravidin plate, wells pre-incubated with PSMA antigen as competitor; anti-M13 HRP detection;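 note: crude clonal phage supernatants added to antigen-treated wells without a wash, incubated briefly, then bound phage read out via horse radish–conjugated anti-M13 antibody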", "method": "as §1"}, "PSMA Fab [5]": {"biological_target": "T3, PSMA Fab", "test": "clonal phage ELISA; biotinylated PSMA Fab on neutravidin plate, blocking buffer alone; anti-M13 HRP detection;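 note: crude clonal phage supernatants added without washing to wells pretreated with blocking buffer with or without PSMA antigen, short incubation, then washed before detecting bound phage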", "method": "as §1"}, "PSMA Fab (006 PSMA Fab) [6]": {"biological_target": "T4, PSMA Fab (006 PSMA Fab) (biotinylated (site not stated))", "T4 construct": "Captured as biotinylated PSMA Fab on neutravidin coated plates in the phage ELISA; also called Anti-PSMA Fab; anti-PSMA Fab", "test": "phage ELISA: clonal phage on biotinylated PSMA Fab captured on neutravidin plate, wells pre-incubated with PSMA antigen as competitor, anti-M13 HRP detection"}, "PSMA Fab (006 PSMA Fab) [7]": {"biological_target": "T4, PSMA Fab (006 PSMA Fab)", "test": "phage ELISA: clonal phage on biotinylated PSMA Fab captured on neutravidin plate, anti-M13 HRP detection", "method": "as §1"}},
  "note": "Where no end group is shown, it is not given here.",
  "data": [
    {"binder": "ENRMCIPEWMCQAS (peptide, not shown: large carriers, Clonal phage of the peptide-180 library, tested as crude phage supernatant)", "note": "[Phage-3764]", "values": [
      {"measurement": "Phage binding ELISA signal, Anti-PSMA Fab", "setting": "PSMA Fab (006 PSMA Fab) [1]", "value": 1.36}
    ]},
    {"binder": "LEGMCKPAWMCTGF (cysteine pairing not given here; also: displayed on phage as pIII fusion, not shown: pIII filament protein of the bacteriophage)", "note": "[Phage-3713]", "values": [
      {"measurement": "Phage binding ELISA signal, Anti-PSMA Fab in presence of PSMA antigen", "setting": "PSMA Fab (006 PSMA Fab) [2]", "value": 0.0862},
      {"measurement": "Phage binding ELISA signal, Anti-PSMA Fab", "setting": "PSMA Fab (006 PSMA Fab) [3]", "value": 1.42}
    ]},
    {"binder": "PGKVCEPIWMCLGF (cysteine pairing not given here; also: displayed on phage as pIII fusion)", "note": "[Phage-3744]", "values": [
      {"measurement": "Phage binding ELISA signal, Anti-PSMA Fab with PSMA antigen", "setting": "PSMA Fab [4]", "value": 0.124},
      {"measurement": "Phage binding ELISA signal, Anti-PSMA Fab", "setting": "PSMA Fab [5]", "value": 1.38}
    ]},
    {"binder": "ESPICKPSWMCSGL", "note": "[Phage-3718]", "values": [
      {"measurement": "Phage binding ELISA signal, Anti-PSMA Fab in presence of PSMA", "setting": "PSMA Fab (006 PSMA Fab) [6]", "value": 0.0616},
      {"measurement": "Phage binding ELISA signal, Anti-PSMA Fab", "setting": "PSMA Fab (006 PSMA Fab) [7]", "value": 1.42}
    ]},
    {"binder": "EEMMCKPDWMCYGF", "note": "[Phage-3755]", "values": [
      {"measurement": "Phage binding ELISA signal, Anti-PSMA Fab with PSMA antigen", "setting": "PSMA Fab [4]", "value": 0.109},
      {"measurement": "Phage binding ELISA signal, Anti-PSMA Fab", "setting": "PSMA Fab [5]", "value": 1.37}
    ]},
    {"binder": "EPRACVPFWMCLGF", "note": "[Phage-3720]", "values": [
      {"measurement": "Phage binding ELISA signal, Anti-PSMA Fab in presence of PSMA", "setting": "PSMA Fab (006 PSMA Fab) [6]", "value": 0.0796},
      {"measurement": "Phage binding ELISA signal, Anti-PSMA Fab", "setting": "PSMA Fab (006 PSMA Fab) [7]", "value": 1.42}
    ]},
    {"binder": "TIMYCKPTWMCTGF", "note": "[Phage-3757]", "values": [
      {"measurement": "Phage binding ELISA signal, Anti-PSMA Fab with PSMA antigen", "setting": "PSMA Fab [4]", "value": 0.0727},
      {"measurement": "Phage binding ELISA signal, Anti-PSMA Fab", "setting": "PSMA Fab [5]", "value": 1.37}
    ]},
    {"binder": "VMPRCEPIWMCRGF", "note": "[Phage-3746]", "values": [
      {"measurement": "Phage binding ELISA signal, Anti-PSMA Fab with PSMA antigen", "setting": "PSMA Fab [4]", "value": 0.0701},
      {"measurement": "Phage binding ELISA signal, Anti-PSMA Fab", "setting": "PSMA Fab [5]", "value": 1.38}
    ]},
    {"binder": "SEPVCTPMWMCTGI (peptide, not shown: large carriers, Clonal phage of the peptide-180 library, tested as crude phage supernatant)", "note": "[Phage-3768]", "values": [
      {"measurement": "Phage binding ELISA signal, Anti-PSMA Fab", "setting": "PSMA Fab (006 PSMA Fab) [1]", "value": 1.35}
    ]},
    {"binder": "ETPRCVPWWMCIDI", "note": "[Phage-3751]", "values": [
      {"measurement": "Phage binding ELISA signal, Anti-PSMA Fab with PSMA antigen", "setting": "PSMA Fab [4]", "value": 0.0731},
      {"measurement": "Phage binding ELISA signal, Anti-PSMA Fab", "setting": "PSMA Fab [5]", "value": 1.37}
    ]},
    {"binder": "MVIECRPEWMCVGF (peptide, not shown: large carriers, Clonal phage of the peptide-180 library, tested as crude phage supernatant)", "note": "[Phage-3765]", "values": [
      {"measurement": "Phage binding ELISA signal, Anti-PSMA Fab", "setting": "PSMA Fab (006 PSMA Fab) [1]", "value": 1.35}
    ]},
    {"binder": "MEPVCLPEWMCWGF", "note": "[Phage-3747]", "values": [
      {"measurement": "Phage binding ELISA signal, Anti-PSMA Fab with PSMA antigen", "setting": "PSMA Fab [4]", "value": 0.0902},
      {"measurement": "Phage binding ELISA signal, Anti-PSMA Fab", "setting": "PSMA Fab [5]", "value": 1.38}
    ]},
    {"binder": "EVVACVPEWMCVGF (peptide, not shown: large carriers, Clonal phage of the peptide-180 library, tested as crude phage supernatant)", "note": "[Phage-3761]", "values": [
      {"measurement": "Phage binding ELISA signal, Anti-PSMA Fab", "setting": "PSMA Fab (006 PSMA Fab) [1]", "value": 1.36}
    ]},
    {"binder": "SEALCVPKWMCHGF", "note": "[Phage-3719]", "values": [
      {"measurement": "Phage binding ELISA signal, Anti-PSMA Fab in presence of PSMA", "setting": "PSMA Fab (006 PSMA Fab) [6]", "value": 0.0994},
      {"measurement": "Phage binding ELISA signal, Anti-PSMA Fab", "setting": "PSMA Fab (006 PSMA Fab) [7]", "value": 1.42}
    ]},
    {"binder": "YGVQCVPSWMCQGF", "note": "[Phage-3715]", "values": [
      {"measurement": "Phage binding ELISA signal, Anti-PSMA Fab in presence of PSMA", "setting": "PSMA Fab (006 PSMA Fab) [6]", "value": 0.0735},
      {"measurement": "Phage binding ELISA signal, Anti-PSMA Fab", "setting": "PSMA Fab (006 PSMA Fab) [7]", "value": 1.42}
    ]},
    {"binder": "VPALCVPNWMCSGL", "note": "[Phage-3749]", "values": [
      {"measurement": "Phage binding ELISA signal, Anti-PSMA Fab with PSMA antigen", "setting": "PSMA Fab [4]", "value": 0.0565},
      {"measurement": "Phage binding ELISA signal, Anti-PSMA Fab", "setting": "PSMA Fab [5]", "value": 1.38}
    ]},
    {"binder": "FELYCVPAWMCSGF", "note": "[Phage-3753]", "values": [
      {"measurement": "Phage binding ELISA signal, Anti-PSMA Fab with PSMA antigen", "setting": "PSMA Fab [4]", "value": 0.16},
      {"measurement": "Phage binding ELISA signal, Anti-PSMA Fab", "setting": "PSMA Fab [5]", "value": 1.37}
    ]},
    {"binder": "EEKLCKPAWMCEWF", "note": "[Phage-3724]", "values": [
      {"measurement": "Phage binding ELISA signal, Anti-PSMA Fab in presence of PSMA", "setting": "PSMA Fab (006 PSMA Fab) [6]", "value": 0.096},
      {"measurement": "Phage binding ELISA signal, Anti-PSMA Fab", "setting": "PSMA Fab (006 PSMA Fab) [7]", "value": 1.41}
    ]},
    {"binder": "ESRLCVPTWMCTWL", "note": "[Phage-3728]", "values": [
      {"measurement": "Phage binding ELISA signal, Anti-PSMA Fab in presence of PSMA", "setting": "PSMA Fab (006 PSMA Fab) [6]", "value": 0.0946},
      {"measurement": "Phage binding ELISA signal, Anti-PSMA Fab", "setting": "PSMA Fab (006 PSMA Fab) [7]", "value": 1.41}
    ]},
    {"binder": "NSSLCIPSWMCSGF", "note": "[Phage-3752]", "values": [
      {"measurement": "Phage binding ELISA signal, Anti-PSMA Fab with PSMA antigen", "setting": "PSMA Fab [4]", "value": 0.0738},
      {"measurement": "Phage binding ELISA signal, Anti-PSMA Fab", "setting": "PSMA Fab [5]", "value": 1.37}
    ]},
    {"binder": "YETVCKPLWMCTGF (peptide, not shown: large carriers, cysteine pairing not given here; also: displayed on phage as pIII fusion, Clonal phage of the peptide-180 library, tested as crude phage supernatant)", "note": "[Phage-3758]", "values": [
      {"measurement": "Phage binding ELISA signal, Anti-PSMA Fab", "setting": "PSMA Fab (006 PSMA Fab) [1]", "value": 1.36}
    ]},
    {"binder": "VVRVCEPSWMCAGF (peptide, not shown: large carriers, cysteine pairing not given here; also: displayed on phage as pIII fusion, Clonal phage of the peptide-180 library, tested as crude phage supernatant)", "note": "[Phage-3767]", "values": [
      {"measurement": "Phage binding ELISA signal, Anti-PSMA Fab", "setting": "PSMA Fab (006 PSMA Fab) [1]", "value": 1.35}
    ]}
  ]
}
